Article PMC2744266, “The Ataxia (ax ^J) Mutation Causes Abnormal GABAA Receptor Turnover in Mice” (PLoS Genetics, 2009)

Molecular target: T1, GABAAR α1 subunit, full length, expressed in HEK293 cells (UniProt P62812 28-455)
T1 sequence (looked up): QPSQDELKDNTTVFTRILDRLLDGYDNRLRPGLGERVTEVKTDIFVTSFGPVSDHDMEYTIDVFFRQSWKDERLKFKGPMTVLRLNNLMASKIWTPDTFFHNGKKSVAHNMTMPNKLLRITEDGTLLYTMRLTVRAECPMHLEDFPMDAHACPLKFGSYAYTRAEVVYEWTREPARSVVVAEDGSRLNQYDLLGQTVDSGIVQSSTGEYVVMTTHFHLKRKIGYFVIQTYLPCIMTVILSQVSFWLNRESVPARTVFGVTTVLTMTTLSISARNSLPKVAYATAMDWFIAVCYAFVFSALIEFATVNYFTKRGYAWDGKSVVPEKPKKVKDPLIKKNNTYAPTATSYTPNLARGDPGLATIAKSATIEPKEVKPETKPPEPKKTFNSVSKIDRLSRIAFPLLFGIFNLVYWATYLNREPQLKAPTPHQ
Test: cell-based or functional assay

B1: Endogenous Usp14 protein derived from mouse brain lysates (enzyme, mouse (endogenous in brain), UniProt Q9JMA1 1-493, looked up)
chain: MPLYSVTVKWGKEKFEGVELNTDEPPMVFKAQLFALTGVQPARQKVMVKGGTLKDDDWGNIKMKNGMTVLMMGSADALPEEPSAKTVFVEDMTEEQLATAMELPCGLTNLGNTCYMNATVQCIRSVPELKDALKRYAGALRASGEMASAQYITAALRDLFDSMDKTSSSIPPIILLQFLHMAFPQFAEKGEQGQYLQQDANECWIQMMRVLQQKLEAIEDDSGRETDSSSAPAVTPSKKKSLIDQYFGVEFETTMKCTESEEEEVTKGKENQLQLSCFINQEVKYLFTGLKLRLQEEITKQSPTLQRNALYIKSSKISRLPAYLTIQMVRFFYKEKESVNAKVLKDVKFPLMLDVYELCTPELQEKMVSFRSKFKDLEDKKVNQQPNANDKNSPPKEIKYEPFSFADDIGSNNCGYYDLQAVLTHQGRSSSSGHYVSWVRRKQDEWIKFDDDKVSIVTPEDILRLSGGGDWHIAYVLLYGPRRVEIMEEESEQ
  GABAAR α1-GFP surface membrane levels (surface biotinylation, HEK293 cells expressing GABAAR α1-GFP and GABAAR β3) with the competing peptide mRFP-GABAAR α1(334–346) against mRFP: 2.5 fold
